Data published in patent US9670515B2, “Methods for production of xylosylxylitol oligomers” (The Regents of the University of California, priority 2014, dated 2017).
Entries after “also recorded” stand apart in the source; their conditions may differ.

What was measured:
CDT-2 = assay: Yeast cell-based xylodextrin uptake assay; design: species or system Neurospora crassa; settings: starting concentration 100 μM, 30 minutes
Description: (§1) S. cerevisiae was grown in an optimized minimum medium (oMM) lacking uracil into late log phase. The oMM contained 1.7 g/L YNB (Sigma, Y1251), 2-fold appropriate CSM dropout mixture, 10 g/L (NH4)2SO4, 1 g/L MgSO4.7H2O, 6 g/L KH2PO4, 100 mg/L adenine hemisulfate, 10 mg/L inositol, 100 mg/L glutamic acid, 20 mg/L lysine, 375 mg/L serine and 100 mM 4-morpholineethanesulfonic acid (MES), pH 6.0 (Lin et al., submitted). Cells were then harvested and washed three times with assay buffer (5 mM MES, 100 mM NaCl, pH 6.0) and resuspended to a final OD600 of 40. Substrate stocks were prepared in the same assay buffer at a concentration of 200 μM. Transport assays were initiated by mixing equal volumes of the cell suspension and the substrate stock. Reactions were incubated at 30° C. with continuous shaking for 30 minutes. Samples were centrifuged at 14,000 rpm at 4° C. for 5 minutes to remove yeast cells. 400 μL of each sample supernatant was transferred to an HPLC vial containing 100 μL of 0.5 M NaOH, and the concentration of the remaining substrate was measured by HPAEC as described below.
as §1, with “(Lin et al. 2014). Cells were” for “(Lin et al., submitted). Cells were”, “30 minutes. […] 400 μL” for “30 minutes. Samples were centrifuged at 14,000 rpm at 4° C. for 5 minutes to remove yeast cells. 400 μL”, “100 μL 0.5 M” for “100 μL of 0.5 M”

[1] = Activity of bacterial GH43-7 enzymes on xylobiose or xylosyl-xylitol; assay type: biochemical; settings: purified enzyme; for β-xylosidase activity: xylobiose (X2) substrate; for xylosyl-xylitol hydrolase activity: xylosyl-xylitol (xlt2) substrate
Description: Experiments were also conducted to further explore potential xylosyl-xylitol hydrolase activity of other β-xylosidases. […] To see if these proteins actually have xylosyl-xylitol hydrolase activity, purified B. subtilis GH43-7 and purified E. coli GH43-7 were incubated with xylobiose (X2) or xylosyl-xylitol (xlt2) and their activity on these substrates was analyzed. […] In summary, two GH43 enzymes from bacteria Bacillus subtilis (AAB41091.1) and Escherichia coli (WP_000406872.1) were tested and confirmed to both cleave xylosyl-xylitol.
S. cerevisiae strains transformed with pRS423_GH43-2, pRS423_GH43-7, or pRS313_NcXR were grown in oMM lacking histidine with 2% glucose until late log phase before harvesting by centrifugation. E. coli strains BL21DE3 transformed with pET302_BsGH43-7 or pET302_EcGH43-7 were grown in TB medium, induced with 0.2 mM IPTG at OD600 of 0.8, and harvested by centrifugation 12 hours after induction. Yeast or E. coli cell pellets were resuspended in a buffer containing 50 mM Tris-HCl, 100 mM NaCl, 0.5 mM DTT, pH 7.4 and protease inhibitor cocktail (Pierce). Cells were lysed with an Avestin homogenizer, and the clarified supernatant was loaded onto a HisTrap column (GE Healthcare). His-tagged enzymes were purified with an imidazole gradient, buffer-exchanged into 20 mM Tris-HCl, 100 mM NaCl, pH 7.4, and concentrated to 5 mg/mL.

[2] = Xylose reductase assay of NcXR with xylodextrin; assay type: biochemical, Neurospora crassa; settings: in vitro, xylodextrins with degrees of polymerization 2 to 4; products up to xlt3
Description: For the xylose reductase assays of S. stipitis XR and N. crassa XR, 1 μM of purified enzyme was incubated with 0.06% xylodextrin and 2 mM NADPH in 1×PBS at 30° C. Reactions were sampled at 30 min and quenched by heating at 99° C. for 10 min. The products were analyzed by LC-QToF as described below.
For the xylose reductase assays of NcXR, 1 μM of purified enzyme was incubated with 0.06% xylodextrin and 2 mM NADPH in 1×PBS at 30° C. Reactions were sampled at 30 min and quenched by heating at 99° C. for 10 min. The products were analyzed by LC-QToF as described below.

[3] = β-xylosidase assay of GH43-2 and GH43-7 with xylosyl-xylitol and xylobiose; assay type: biochemical, Neurospora crassa; settings: purified enzyme
Description: For the β-xylosidase assay of GH43-2 with xylodextrins, 0.5 μM of purified enzyme was incubated with 0.1% in-house prepared xylodextrin or 1 mM xylobiose (Megazyme) in 1×PBS at 30° C. Reactions were sampled at 30 min and quenched by adding 5 volumes of 0.1 mM NaOH. The products were analyzed by HPAEC as described below. For pH profiling, acetate buffer at pH 4.0, 4.5, 5.0, 5.5, 6.0, and phosphate buffer at 6.5, 7.0, 7.5, 8 were added at a concentration of 0.1 M. For the β-xylosidase assay of GH43-2 and GH43-7 with xylosyl-xylitol, 10 μM of purified enzyme was incubated with 4.5 mM xylosyl-xylitol and 0.5 mM xylobiose in 20 mM MES buffer, pH=7.0, and 1 mM CaCl2 at 30° C. Reactions were sampled at 3 hours and quenched by heating at 99° C. for 10 min. The products were analyzed by ion-exclusion HPLC as described below.
For the β-xylosidase assay of GH43-2 with xylodextrins, 0.5 μM of purified enzyme was incubated with 0.1% in-house prepared xylodextrin or 1 mM xylobiose (Megazyme) in 1×PBS at 30° C. Reactions were sampled at 30 min and quenched by adding 5 volumes of 0.1 M NaOH. The products were analyzed by HPAEC as described below. […] The products were analyzed by ion-exclusion HPLC as described below.

Question: Which “import into S. cerevisiae strains expressing cdt-2” value (CDT-2) does the source give for `OC1OC[C@@H](O[C@@H]2OC[C@@H](O[C@@H]3OC[C@@H](O)[C@H](O)[C@H]3O)[C@H](O)[C@H]2O)[C@H](O)[C@H]1O` (stereo partly shown) [xylotriose] here?
Answer: able to import

Question: Which “import into S. cerevisiae strains expressing cdt-2” value (CDT-2) does the source give for `OC1OC[C@@H](O[C@@H]2OC[C@@H](O[C@@H]3OC[C@@H](O[C@@H]4OC[C@@H](O)[C@H](O)[C@H]4O)[C@H](O)[C@H]3O)[C@H](O)[C@H]2O)[C@H](O)[C@H]1O` (stereo partly shown) [xylotetraose] here?
Answer: able to import

Question: With `OC1OC[C@@H](O[C@@H]2OC[C@@H](O)[C@H](O)[C@H]2O)[C@H](O)[C@H]1O` (stereo partly shown) [xylobiose] as the molecule, how does the “import into S. cerevisiae strains expressing cdt-2” value (CDT-2) read?
Answer: able to import

B1: B. subtilis GH43-7: GH43 enzyme from bacteria Bacillus subtilis, homologous to GH43-7 (protein, listed as Bacillus subtilis)
chain: MKITNPVLKGFNPDPSICRAGEDYYIAVSTFEWFPGVQIHHSKDLVNWHLVAHPLQRVSQLDMKGNPNSGGVWAPCLSYSDGKFWLIYTDVKVVDGAWKDCHNYLVTCETINGDWSEPIKLNSSGFDASLFHDTDGKKYLLNMLWDHRIDRHSFGGIVIQEYSDKEQKLIGKPKVIFEGTDRKLTEAPHLYHIGNYYYLLTAEGGTRYEHAATIARSANIEGPYEVHPDNPILTSWHDPGNPLQKCGHASIVQTHTDEWYLAHLTGRPIHPDDDSIFQQRGYCPLGRETAIQKLYWKDEWPYVVGGKEGSLEVDAPSIPETIFEATYPEVDEFEDSTLNINFQTLRIPFTNELGSLTQAPNHLRLFGHESLTSTFTQAFVARRWQSLHFEAETAVEFYPENFQQAAGLVNYYNTENWTALQVTHDEELGRILELTICDNFSFSQPLNNKIVIPREVKYVYLRVNIEKDKYYYFYSFNKEDWHKIDIALESKKLSDDYIRGGGFFTGAFVGMQCQDTGGNHIPADFRYFRYKEK
Question: With B1 as the molecule, how does the β-xylosidase activity [1] read?
Answer: exhibited β-xylosidase activity

Question: What about the xylosyl-xylitol hydrolase activity [1] of the same molecule?
Answer: exhibited xylosyl-xylitol hydrolase activity

B2: XYR-1: xylose reductase from Neurospora crassa (protein)
chain: MVPAIKLNSGFDMPQVGFGLWKVDGSIASDVVYNAIKAGYRLFDGACDYGNEVECGQGVARAIKEGIVKREELFIVSKLWNTFHDGDRVEPIVRKQLADWGLEYFDLYLIHFPVALEYVDPSVRYPPGWHFDGKSEIRPSKATIQETWTAMESLVEKGLSKSIGVSNFQAQLLYDLLRYAKVRPATLQIEHHPYLVQQNLLNLAKAEGIAVTAYSSFGPASFREFNMEHAQKLQPLLEDPTIKAIGDKYNKDPAQVLLRWATQRGLAIIPKSSREATMKSNLNSLDFDLSEEDIKTISGFDRGIRFNQPTNYFSAENLWIFG
modifications: N. crassa
Question: Which “production of xylosyl-xylitol oligomers from xylodextrin substrates” value [2] does the source give for B2 here?
Answer: able to directly produce xylosyl-xylitol oligomers; also recorded: generated xylosyl-xylitol products

B3: E. coli GH43-7: GH43 enzyme from bacteria Escherichia coli, homologous to GH43-7 (protein, listed as Escherichia coli)
chain: MEITNPILTGFNPDPSLCRQGEDYYIATSTFEWFPGVRIYHSRDLKNWSLVSTPLDRVSMLDMKGNPDSGGIWAPCLSYADGKFWLLYTDVKIVDSPWKNGRNFLVTAPSIEGPWSEPIPMGNGGFDPSLFHDDDGRKYYIYRPWGPRHHSNPHNTIVLQAFDPQTGTLSPERKTLFTGTPLCYTEGAHLYRHAGWYYLMVAEGGTSYEHAVVVLRSKNIDGPYELHPDVTMMTSWHLPENPLQKSGHGSLLQTHTGEWYMAYLTSRPLRLPGVPLLASGGRGYCPLGRETGIARIEWRDGWPYVEGGKHAQLTVKGPQVAEQPAAVPGNWRDDFDASSLDPELQTLRIPFDDTLGSLTARPGFLRLYGNDSLNSTFTQSTVARRWQHFAFRAETRMEFSPVHFQQSAGLTCYYNSKNWSYCFVDYEEGQGRTIKVIQLDHNVPSWPLHEQPIPVPEHAESVWLRVDVDTLVYRYSYSFDGETWHTVPVTYEAWKLSDDYIGGRGFFTGAFVGLHCEDISGDGCYADFDYFTYEPV
Question: With B3 as the molecule, how does the β-xylosidase activity [1] read?
Answer: exhibited β-xylosidase activity

Question: And the xylosyl-xylitol hydrolase activity [1]?
Answer: exhibited xylosyl-xylitol hydrolase activity

B4: GH43-7: second putative intracellular β-xylosidase from N. crassa with xylosyl-xylitol hydrolase activity (protein)
chain: MPLVKNPILPGFNPDPSVLRVGQDYYIATSTFEWYPGVQIHHSTDLANWTLLTRPLNRKSQLDMRGDPDSCGVWAPCLSHDGDKFWLVYTDVKRKDGSFKDAHNFIVWADKIDGEWSDPVYVNSSGFDPSLFHDPDSGKKYFVNMLWDHRRRPLLFAGIAVQEWDAKTKKLVGERKNVYQGTELALAEAPHVYKRNGWYYLLIAEGGTGYEHACTLARSKDIWGPYKTHPEKHVLTSKDHPRAALQRAGHGDIVEIEDGRTYLVHLTGRPTTQLRRCVLGRETAIQECYWKDDWLYVKNGPVPSLWVDLLGERDESKYWEEKRYTFKDGLHKDFQWLRTPETERIFNVKDGKLTLIGREAIGSWFEQALVARRQEHFSYDAETVIDFSPTDERQFAGLTAYYCRYNFFYLTVTAHSDGQRELLIMSSEASWPIGNLNTPYVPYVQIPNEGKVKLALTIRGNQLQFYYAVLDSGDEELKKIGPVFDASIVSDECGGHQQHGSFTGAFVGVAASDLNGLAAEAKFDYLLYKPVKNQQDAYVRDNE
modifications: N. crassa
Question: What does the source list for B4?
Answer: β-xylosidase activity ([3]; xylobiose substrate): weak β-xylosidase activity; hydrolysis of xylosyl-xylitol into xylose and xylitol ([3]; xylosyl-xylitol substrate): rapidly hydrolyzed
